{
  "source": "patent US20230416396A1",
  "about": "(Regeneron, published 2023)",
  "key": {"[1]": {"biological_target": "T1, human 4-1BB on cells (human, UniProt Q07011 24-255)", "T1 sequence (Q07011 24-255)": "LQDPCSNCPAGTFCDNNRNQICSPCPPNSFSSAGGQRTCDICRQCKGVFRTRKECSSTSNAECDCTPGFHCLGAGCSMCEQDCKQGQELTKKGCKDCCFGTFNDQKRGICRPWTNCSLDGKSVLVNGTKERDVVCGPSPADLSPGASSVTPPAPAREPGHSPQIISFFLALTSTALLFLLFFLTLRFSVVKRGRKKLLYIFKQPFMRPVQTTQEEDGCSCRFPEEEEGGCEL", "assay": "cell-based or functional assay"}, "[2]": {"biological_target": "T1, human 4-1BB on cells", "assay": "cell-based or functional assay", "remark": "listed apart in the source"}, "[3]": {"biological_target": "T2, human 4-1BB expressed with a C-terminal myc-myc-hexahistidine tag (human, UniProt Q07011 24-186)", "T2 construct": "also called h4-1BB.mmH; REGN3584; not shown: C-terminal myc-myc-hexahistidine tag", "T2 sequence (Q07011 24-186 limits assumed)": "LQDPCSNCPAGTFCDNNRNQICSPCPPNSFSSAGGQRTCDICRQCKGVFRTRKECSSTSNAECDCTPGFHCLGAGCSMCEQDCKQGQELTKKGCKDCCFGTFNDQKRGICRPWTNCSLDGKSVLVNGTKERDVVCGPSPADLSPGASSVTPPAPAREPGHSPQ", "assay": "SPR Biacore 8k, antibody captured by anti-human Fc, h4-1BB.mmH as analyte, 25 C", "experimental": "(§1) Equilibrium dissociation constants (KD values) for human 4-1BB expressed with a C-terminal myc-myc-hexahistidine tag (h4-1BB.mmH, REGN3584) or human 4-1BB expressed with a C-terminal murine Fc tag (h4-1BB.mFc, REGN3585) binding to purified anti-CD38×4-1BB 1+2 antibodies were determined using a real-time surface plasmon resonance biosensor using a Biacore 8k instrument. The CM5 Biacore sensor surface was derivatized by amine coupling with a monoclonal mouse anti-human Fc antibody (REGN2567). All Biacore binding studies were performed in a buffer composed of 0.01M HEPES pH 7.4, 0.15M NaCl, 3 mM EDTA, 0.05% v/v Surfactant P20 (HBS-EP running buffer). […] Antibody-reagent association was monitored for 5 minutes while dissociation in HBS-EP running buffer was monitored for 10 minutes. At the end of each cycle, the anti-CD38×4-1BB 1+2 antibody capture surface was regenerated using a 10 second injection of 20 mM phosphoric acid. All binding kinetics experiments were performed at 25° C.\n(§2) Kinetic association (kₐ) and dissociation (kd) rate constants were determined by fitting the real-time sensorgrams to a 1:1 binding model using Cytiva Insight curve fitting software. Binding dissociation equilibrium constants (KD) and dissociative half-lives (t/2) were calculated from the kinetic rate constants as: […]"}, "[4]": {"biological_target": "T3, human CD38 endogenously expressed on MOLP8 cells (human, UniProt P28907 1-300)", "T3 construct": "whole, on cells; also called hCD38", "assay": "flow cytometry on MOLP8 cells (endogenous hCD38), APC anti-human secondary", "experimental": "(§3) The ability of the multispecific antigen binding molecules to bind cells was assessed using flow cytometry. Cell lines were chosen to determine the ability of both the anti-CD38 and anti-4-1BB arms to bind their targets. […] Binding was detected by using a labeled secondary antibody and measuring fluorescence on a flow cytometer.\nHEK293 cells were lifted with trypsin, washed and resuspend in stain buffer (2% FBS in PBS). MOLP8 cells were washed and resuspended in stain buffer. Cells were added to wells of a 96 well V-bottom plate (3×10⁵ cells/well). A 1:4, 9-point, dose titration of test antibodies was diluted in stain buffer and added to cells to a final concentration ranging from 610 fM to 10 nM (a “no antibody” control was included as the ninth point (153fM), labeled as “secondary only”). Cells and antibodies were incubated for 30 min on ice and then washed in stain buffer. Cells were resuspended in 2 ug/ml allophycocyanin (APC) conjugated goat-anti human secondary antibody and incubated for 30 min on ice. Cells were then washed and resuspended in viability dye (according to the manufacturer's protocol) and incubated for 30 min on ice. Cells were then washed with stain buffer and resuspended in 2% PFA for 30 min on ice. After washing, cells were filtered and analyzed by flow cytometry to determine the geometric mean fluorescence intensity (gMFI), which was subsequently plotted using GraphPad Prism software. EC₅₀ values of the antibodies were determined from a 4-parameter logistic equation over a 9-point dose response curve (including secondary only control, representing the ninth point)."}, "[5]": {"biological_target": "T1, human 4-1BB on cells", "assay": "flow cytometry on HEK293/h4-1BB cells, APC anti-human secondary", "experimental": "as §3\nHEK293 and HEK293/4-1BB cells were lifted with trypsin, washed and resuspended in stain buffer (2% FBS in PBS) and added to wells of a 96 well V-bottom plate (3×10⁵ cells/well). A 1:5, 9-point, dose titration of test antibodies was diluted in stain buffer and added to cells to a final concentration ranging from 1.3 pM to 100 nM (a “no antibody” control was included as the ninth point ([…]) labeled as “secondary only”). Cells and antibodies were incubated for 30 min on ice and then washed in stain buffer. Cells were resuspended in 2 ug/ml allophycocyanin (APC) conjugated goat-anti human secondary antibody and incubated for 30 min on ice. Cells were then washed and resuspended in viability dye (according to the manufacturer's protocol) and incubated for 30 min on ice. Cells were then washed with stain buffer and resuspended in 2% PFA for 30 min on ice. After washing, cells were filtered and analyzed by flow cytometry to determine the geometric mean fluorescence intensity (gMFI), which was subsequently plotted using GraphPad Prism software. EC₅₀ values of the antibodies were determined from a 4-parameter logistic equation over a 9-point dose response curve (including secondary only control)."}, "[6]": {"biological_target": "T1, human 4-1BB on cells", "assay": "cell-based or functional assay", "remark": "listed apart in the source"}, "[7]": {"biological_target": "T1, human 4-1BB on cells", "assay": "cell-based or functional assay", "remark": "listed apart in the source"}, "[8]": {"biological_target": "T4, human 4-1BB expressed with a C-terminal murine Fc tag (human, UniProt Q07011 24-186)", "T4 construct": "also called h4-1BB.mFc; REGN3585; not shown: C-terminal murine Fc tag", "T4 sequence (Q07011 24-186 limits assumed)": "as above", "assay": "SPR Biacore 8k, antibody captured by anti-human Fc, h4-1BB.mFc as analyte, 25 C", "experimental": "as §1, §2"}, "[9]": {"biological_target": "T4, human 4-1BB expressed with a C-terminal …", "assay": "SPR Biacore 4000, h4-1BB.mFc captured by anti-mouse Fc, antibody as analyte, 25 C", "experimental": "Equilibrium dissociation constants (KD values) for human 4-1BB expressed with a C-terminal murine Fc tag (h4-1BB.mFc, REGN3585) binding to purified anti-CD38×4-1BB 1+2 antibodies were determined using a real-time surface plasmon resonance biosensor using a Biacore 4000 instrument. […] All Biacore binding studies were performed in a buffer composed of 0.01M HEPES pH 7.4, 0.15M NaCl, 3 mM EDTA, 0.05% v/v Surfactant P20 (HBS-EP running buffer). Different concentrations of CD38×4-1BB 1+2 constructs prepared in HBS-EP running buffer (ranging from 100 to 6.25 nM in 4-fold serial dilutions) were injected over the h4-1BB.mFc (REGN3585) captured surface at a flow rate of 30 μL/minute. Antibody-reagent association was monitored for 5 minutes while dissociation in HBS-EP running buffer was monitored for 10 minutes. At the end of each cycle, the h4-1BB.mFc capture surface was regenerated using a 40 sec injection of 10 mM glycine, pH 1.5. All binding kinetics experiments were performed at 25° C.\nas §2"}},
  "data": [
    {"binder": "REGN7650 (bispecific antibody, human IgG4 S228P, kappa, 1+2 format, hIgG4P-PVA; also called CD38x4-1BB (1 + 2); 26812P2 x 25898P2 (IN) + 35321P2 (OUT)) heavy 1: EVQLVESGGGLVQPGGSLRLPCAASGFTFSSYAMSWVRQAPGKGLEWVADISGSGGDTYYVDSVKGRFTISRDNSKNTLYLQMNSLRIEDTAVYYCAKGRWHWNYEGFDIWGQGTMVTVSSASTKGPSVFPLAPCSRSTSESTAALGCLVKDYFPEPVTVSWNSGALTSGVHTFPAVLQSSGLYSLSSVVTVPSSSLGTKTYTCNVDHKPSNTKVDKRVESKYGPPGGGGSGGGGSGGGGSQVQLVESGGDVVQPGRSLRLSCTASGFTFSSFGMHWVRQAPGKGLEWVTFLSYDGSYKYYADSVKGRFTISRDNSKNTLYLQMNSLRAEDTAIFYCARDWLDYWGQGTLVTVSSASTKGPSVFPLAPCSRSTSESTAALGCLVKDYFPEPVTVSWNSGALTSGVHTFPAVLQSSGLYSLSSVVTVPSSSLGTKTYTCNVDHKPSNTKVDKRVESKYGPPCPPCPAPPVAGPSVFLFPPKPKDTLMISRTPEVTCVVVDVSQEDPEVQFNWYVDGVEVHNAKTKPREEQFNSTYRVVSVLTVLHQDWLNGKEYKCKVSNKGLPSSIEKTISKAKGQPREPQVYTLPPSQEEMTKNQVSLTCLVKGFYPSDIAVEWESNGQPENNYKTTPPVLDSDGSFFLYSRLTVDKSRWQEGNVFSCSVMHEALHNRFTQKSLSLSPGK heavy 2: EVQLVESGGGLVQPGRSLRLSCAASGFTFDDYAMHWVRQAPGKGLEWVSGISWKSDNIGYADSVKGRFTISRDNAKNSLYLQMNSLRAEDTALYYCAKALGGWKFDYYYGMDVWGQGTTVTVSSASTKGPSVFPLAPCSRSTSESTAALGCLVKDYFPEPVTVSWNSGALTSGVHTFPAVLQSSGLYSLSSVVTVPSSSLGTKTYTCNVDHKPSNTKVDKRVESKYGPPCPPCPAPPVAGPSVFLFPPKPKDTLMISRTPEVTCVVVDVSQEDPEVQFNWYVDGVEVHNAKTKPREEQFNSTYRVVSVLTVLHQDWLNGKEYKCKVSNKGLPSSIEKTISKAKGQPREPQVYTLPPSQEEMTKNQVSLTCLVKGFYPSDIAVEWESNGQPENNYKTTPPVLDSDGSFFLYSRLTVDKSRWQEGNVFSCSVMHEALHNHYTQKSLSLSLGK light: not shown", "values": [
      {"measurement": "EC50 of IFNγ release, T cells + NALM-6 + Cemiplimab", "setting": "[1]", "value": 0.156, "unit": "nM"},
      {"measurement": "EC50 of IL-2 release, T cells + NALM6 + Cemiplimab", "setting": "[2]", "value": 0.155, "unit": "nM"},
      {"measurement": "EC50 of IL-2 release, T cells + NALM6 + IgG4P", "setting": "[2]", "value": 0.179, "unit": "nM"},
      {"measurement": "EC50 of IL-2 release, T cells + NALM6/PD-L1 + Cemiplimab", "setting": "[2]", "value": 0.283, "unit": "nM"},
      {"measurement": "EC50 of IL-2 release, T cells + NALM6/PD-L1 + IgG4P", "setting": "[2]", "value": 0.228, "unit": "nM"},
      {"measurement": "100 nM h4-1BB.mmH Bind (RU)", "setting": "[3]", "value": 41.9, "unit": "RU"},
      {"measurement": "Kd", "setting": "[3]", "value": 20.4, "unit": "nM"},
      {"measurement": "koff", "setting": "[3]", "value": 0.00535, "unit": "s⁻¹"},
      {"measurement": "kon", "setting": "[3]", "value": 262000, "unit": "M⁻¹ s⁻¹"},
      {"measurement": "t½", "setting": "[3]", "value": 2.2, "unit": "min"},
      {"measurement": "MAX gMFI", "setting": "[4]", "value": 140000, "unit": "gMFI"},
      {"measurement": "EC50", "setting": "[5]", "value": 0.997, "unit": "nM"},
      {"measurement": "MAX gMFI", "setting": "[5]", "value": "1e+06", "unit": "gMFI"},
      {"measurement": "EC50 of luciferase activity, HEK293/NFkB-Luc/h4-1BB reporter + OPM2", "setting": "[6]", "value": 0.0989, "unit": "nM"},
      {"measurement": "MAX luciferase activity, HEK293/NFkB-Luc/h4-1BB reporter + HEK293/CD20", "setting": "[6]", "value": "1.5e+06", "unit": "RLU"},
      {"measurement": "MAX luciferase activity, HEK293/NFkB-Luc/h4-1BB reporter + HEK293/CD20/CD38", "setting": "[6]", "value": "2.3e+06", "unit": "RLU"},
      {"measurement": "MAX luciferase activity, HEK293/NFkB-Luc/h4-1BB reporter + MOLP-8", "setting": "[6]", "value": "2.4e+06", "unit": "RLU"},
      {"measurement": "MAX luciferase activity, HEK293/NFkB-Luc/h4-1BB reporter + OPM2", "setting": "[6]", "value": "2e+06", "unit": "RLU"},
      {"measurement": "EC50 of IL-2 release, T cells + HEK293/CD20/CD38 + REGN1979", "setting": "[7]", "value": 0.014, "unit": "nM"},
      {"measurement": "EC50 of IL-2 release, T cells + MOLP-8 + REGN5458", "setting": "[7]", "value": 0.0317, "unit": "nM"},
      {"measurement": "MAX IL-2 release, T cells + HEK293/CD20 + REGN1979", "setting": "[7]", "value": 184, "unit": "pg/mL"},
      {"measurement": "MAX IL-2 release, T cells + HEK293/CD20/CD38 + IsoC", "setting": "[7]", "value": 10, "unit": "pg/mL"},
      {"measurement": "MAX IL-2 release, T cells + HEK293/CD20/CD38 + REGN1979", "setting": "[7]", "value": 2720, "unit": "pg/mL"},
      {"measurement": "MAX IL-2 release, T cells + MOLP-8 + IsoC", "setting": "[7]", "value": 288, "unit": "pg/mL"},
      {"measurement": "MAX IL-2 release, T cells + MOLP-8 + REGN5458", "setting": "[7]", "value": 553, "unit": "pg/mL"},
      {"measurement": "100 nM h4-1BB.mFc Bind (RU)", "setting": "[8]", "value": 152, "unit": "RU"},
      {"measurement": "Kd", "setting": "[8]", "value": 1.2, "unit": "nM"},
      {"measurement": "koff", "setting": "[8]", "value": 0.000122, "unit": "s⁻¹"},
      {"measurement": "kon", "setting": "[8]", "value": 102000, "unit": "M⁻¹ s⁻¹"},
      {"measurement": "t½", "setting": "[8]", "value": 1.58, "unit": "h"},
      {"measurement": "100 nM Ab Bind (RU)", "setting": "[9]", "value": 266, "unit": "RU"},
      {"measurement": "Kd", "setting": "[9]", "value": 0.797, "unit": "nM"},
      {"measurement": "koff", "setting": "[9]", "value": 0.000169, "unit": "s⁻¹"},
      {"measurement": "kon", "setting": "[9]", "value": 212000, "unit": "M⁻¹ s⁻¹"},
      {"measurement": "t½", "setting": "[9]", "value": 1.14, "unit": "h"}
    ]}
  ]
}
